Data reported in publication PMC9971032, “Structure and mechanism of a tripartite ATP-independent periplasmic TRAP transporter” (Nature Communications, 2023).
One block for each compound: values may come before it.

Experiments:
[1] = target: SiaQM complex with SiaM R292A (Photobacterium profundum)
[2] = target: SiaQM transporter complex from Photobacterium profundum (Photobacterium profundum)
SiaP = target: T1, SiaP (Photobacterium profundum, UniProt Q6LPV9); assay: isothermal titration calorimetry; type: binding; conditions: 50 mM Tris-HCl pH 8.0, 150 mM NaCl, 25 °C; single-site fit
T1 construct: gene SMB20295; native signal peptide (residues 1-22) removed, apparently untagged (pET30deltaSE, ion-exchange and hydrophobic purification), E. coli BL21(DE3)
From the text: isothermal titration calorimetry on SiaP | We confirmed that SiaP binds sialic acid with nanomolar affinity

- reduction of [3H]-Neu5Ac transport activity in proteoliposomes against wildtype SiaPQM [1]: 87 % reduction
Compound: SiaP (substrate-binding P-subunit of the sialic acid TRAP transporter from Photobacterium profundum) (natural protein)

- reduction of [3H]-Neu5Ac transport activity in proteoliposomes against wildtype SiaPQM [2]: 77 % reduction
Compound: SiaP D59A (natural protein)

- Kd (SiaP): 561 nM
Compound: CC(=O)N[C@H]1[C@H]([C@H](O)[C@H](O)CO)OC(O)(C(=O)O)C[C@@H]1O (stereo partly drawn) [Neu5Ac]
